Assay results as given in patent publication US20060052292A1 (MAXYGEN APS MAXYGEN, published 2006).

Molecular target: the molecule itself
Assay: native Tris-Glycine gel, self-association (homotrimer) of apM1(82-244)
Description: After storage at −20° C. for several weeks the material was verified to have a heterogeneous appearance on a coomassie stained Novex 8-16% Tris-Glycine gel (Invitrogen; Cat. No. EC60452) run under native conditions (FIG. 4, lane 1). […] (In FIG. 4, M is SeeBlue Plus2).

B1: apM1(82-244), human adiponectin fragment expressed in CHO K1 cells (other)
chain: ETGVPGAEGPRGFPGIQGRKGEPGEGAYVYRSAFSVGLETYVTIPNMPIRFTKIFYNQQNHYDGSTGKFHCNIPGLYYFAYHITVYMKDVKVSLFKKDKAMLFTYDQYQENNVDQASGSVLLHLEVGDQVWLQVYGEGERNGLYADNDNDSTFTGFLLYHDTN
modifications: partial hydroxy-Pro at 86, 95 and 104; partial glyco-hydroxy-Lys at 101 (about 60%)
notes: Forms a calcium-stabilised homotrimer on native gels; On the Western blot the denatured monomer is detected
Q: Does B1 bind?
A: binds
